Measurements: US20240059799A1 (Pfizer, published 2024)
Substitutions are numbered along the chain they refer to.

T1: human IL-23 (human, UniProt P29460 23-328; Q9NPF7 20-189)
T1 sequence 1: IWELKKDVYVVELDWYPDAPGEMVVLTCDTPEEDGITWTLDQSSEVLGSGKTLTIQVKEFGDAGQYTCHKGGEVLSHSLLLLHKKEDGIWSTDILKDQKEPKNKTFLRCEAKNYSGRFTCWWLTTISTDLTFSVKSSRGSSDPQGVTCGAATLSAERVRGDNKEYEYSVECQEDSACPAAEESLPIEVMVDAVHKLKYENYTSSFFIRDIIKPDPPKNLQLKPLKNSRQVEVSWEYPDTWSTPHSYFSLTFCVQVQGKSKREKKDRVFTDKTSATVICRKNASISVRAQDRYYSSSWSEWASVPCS
T1 sequence 2: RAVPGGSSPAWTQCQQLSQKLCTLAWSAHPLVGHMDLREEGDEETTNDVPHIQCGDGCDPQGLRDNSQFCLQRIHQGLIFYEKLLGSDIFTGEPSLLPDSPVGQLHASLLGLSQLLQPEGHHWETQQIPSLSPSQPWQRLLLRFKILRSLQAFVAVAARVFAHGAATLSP

T2: human IL-12 (human, UniProt P29460 23-328; P29459 23-219)
T2 sequence 1: T1 sequence 1
T2 sequence 2: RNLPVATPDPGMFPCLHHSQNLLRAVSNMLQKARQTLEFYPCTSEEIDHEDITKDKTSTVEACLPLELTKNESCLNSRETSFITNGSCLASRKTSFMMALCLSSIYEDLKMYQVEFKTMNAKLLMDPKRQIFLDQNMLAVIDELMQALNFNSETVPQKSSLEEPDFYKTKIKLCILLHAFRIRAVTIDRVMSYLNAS

T3: recombinant human TL1A (human, UniProt O95150 71-251)
T3 chain: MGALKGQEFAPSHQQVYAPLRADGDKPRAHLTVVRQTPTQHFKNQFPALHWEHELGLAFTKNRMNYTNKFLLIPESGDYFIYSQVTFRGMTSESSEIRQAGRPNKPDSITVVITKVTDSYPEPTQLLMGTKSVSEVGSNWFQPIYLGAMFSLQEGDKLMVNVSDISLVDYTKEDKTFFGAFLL

B1: p40TL1A-0018 bispecific antibody (bispecific antibody, human IgG1, kappa)
heavy 1: EVQLVQSGAEVKKPGESLKISCKGSGYSFTTYWLGWVRQMPGKGLDWIGIMSPVDSDIRYSPSFQGQVTMSVDKSITTAYLQWNSLKASDTAMYYCARRRPGQGYFDFWGQGTLVTVSSASTKGPSVFPLAPSSKSTSGGTAALGCLVKDYFPEPVTVSWNSGALTSGVHTFPAVLQSSGLYSLSSVVTVPSSSLGTQTYICNVNHKPSNTKVDKKVEPKSCDKTHTCPPCPAPEAAGAPSVFLFPPKPKDTLMISRTPEVTCVVVDVSHEDPEVKFNWYVDGVEVHNAKTKPREEQYNSTYRVVSVLTVLHQDWLNGKEYKCKVSNKALPAPIEKTISKAKGQPREPQVYTLPPSREEMTKNQVSLWCLVKGFYPSDIAVEWESNGQPENNYKTTPPVLDSDGSFFLYSKLTVDKSRWQQGNVFSCSVLHEALHSHYTQKSLSLSPGK
light 1: not shown
heavy 2: QVQLVQSGAEVKKPGASVKVSCKASGYDYTYYGISWVRQAPGQGLEWMGWISTYNTGTHYAPSLQGRVTMTTDTSTSTAYMELRSLRSDDTAVYYCARESYYGSGAFRGGMDVWGQGTTVTVSSASTKGPSVFPLAPSSKSTSGGTAALGCLVKDYFPEPVTVSWNSGALTSGVHTFPAVLQSSGLYSLSSVVTVPSSSLGTQTYICNVNHKPSNTKVDKKVEPKSCDKTHTCPPCPAPEAAGAPSVFLFPPKPKDTLMISRTPEVTCVVVDVSHEDPEVKFNWYVDGVEVHNAKTKPREEQYNSTYRVVSVLTVLHQDWLNGKEYKCKVSNKALPAPIEKTISKAKGQPREPQVYTLPPSREEMTKNQVSLSCAVKGFYPSDIAVEWESNGQPENNYKTTPPVLDSDGSFFLVSKLTVDKSRWQQGNVFSCSVLHEALHSHYTQKSLSLSPGK
light 2: not shown
B2: p40TL1A-0024 bispecific antibody (bispecific antibody, human IgG1, kappa)
heavy 1: B1 heavy 1 with W368T, K411R
light 1: not shown
heavy 2: B1 heavy 2 with S373T, A375E, V414Y
light 2: not shown
B3: p40TL1A-0021 bispecific antibody (bispecific antibody)
heavy 1: B1 heavy 1 with D223R, W368T, K411R
light 1: not shown
heavy 2: B1 heavy 2 with D228E, S373T, A375E, V414Y
light 2: not shown
B4: p40TL1A-0032 bispecific antibody (bispecific antibody)
heavy 1: B1 heavy 1 with L130K, V187S, Y351C
light 1: DIQMTQSPSSLSASVGDRVTITCRASQGISSWLAWYQQKPEKAPKSLIYAASSLQSGVPSRFSGSGSGTDFTLTISSLQPEDFATYYCQQYNIYPYTFGQGTKLEIKRTVAAPSVFIFPPSDEQLKSGTASVSCLLNNFYPREAKVQWKVDNALQSGNSQESVTEQDSKDSTYSLDSTLTLSKADYEKHKVYACEVTHQGLSSPVTKSFNRGEC
heavy 2: B1 heavy 2 with L135E, S190G, S361C
light 2: not shown

How the values were obtained:
Assay in all cases: cell-based or functional assay
[1] = target: T1, human IL-23
[2] = target: T2, human IL-12
[3] = target: T3, recombinant human TL1A

| Binder | KIT-225 STAT3 assay IL-23, Bioactivity relative to p40-0003 [1] [fold] | KIT-225 STAT3 assay IL-23 IC50 [1] [nM] | KIT-225 STAT4 assay IL-12, Bioactivity relative to p40-0003 [2] [fold] | KIT-225 STAT4 assay IL-12 IC50 [2] [nM] | NF-κB assay IC50 (TF-1 reporter cells) [3] [nM] | NF-κB assay, Bioactivity relative to TL1A-0372 [3] [fold] |
| --- | --- | --- | --- | --- | --- | --- |
| B1 | 2.1 | 3.4 | 2 | 6.6 | 0.105 | 1 |
| B2 | 2.2 | 3.6 | 1.3 | 4.3 | 0.106 | 1 |
| B3 | 1.4 | 3.4 | 0.9 | 3 | 0.0509 | 0.5 |
| B4 | 2.3 | 3.8 | 1.4 | 4.6 | 0.131 | 1.3 |
